B1: HA-tagged UL97, wild type, full length (pCGN-HA-UL97) [human cytomegalovirus (HCMV)] / Flag-tagged 14-3-3 θ [human] (parent complex)
chain 1: MSSALRSRARSASLGTTTQGWDPPPLRRPSRARRRQWMREAAQAAAQAAVQAAQAAAAQVAQAHVDENEVVDLMADEAGGGVTTLTTLSSVSTTTVLGHATFSACVRSDVMRDGEKEDAASDKENLRRPVVPSTSSRGSAASGDGYHGLRCRETSAMWSFEYDRDGDVTSVRRALFTGGSDPSDSVSGVRGGRKRPLRPPLVSLARTPLCRRRVGGVDAVLEENDVELRAESQDSAVASGPGRIPQPLSGSSGEESATAVEADSTSHDDVHCTCSNDQIITTSIRGLTCDPRMFLRLTHPELCELSISYLLVYVPKEDDFCHKICYAVDMSDESYRLGQGSFGEVWPLDRYRVVKVARKHSETVLTVWMSGLIRTRAAGEQQQPPSLVGTGVHRGLLTATGCCLLHNVTVHRRFHTDMFHHDQWKLACIDSYRRAFCTLADAIKFLNHQCRVCHFDITPMNVLIDVNPHNPSEIVRAALCDYSLSEPYPDYNERCVAVFQETGTARRIPNCSHRLRECYHPAFRPMPLQKLLICDPHARFPVAGLRRYCMSELSALGNVLGFCLMRLLDRRGLDEVRMGTEALLFKHAGAACRALENGKLTHCSDACLLILAAQMSYGACLLGEHGAALVSHTLRFVEAKMSSCRVRAFRRFYHECSQTMLHEYVRKNVERLLATSDGLYLYNAFRRTTSIICEEDLDGDCRQLFPE
chain 2: MEKTELIQKAKLAEQAERYDDMATCMKAVTEQGAELSNEERNLLSVAYKNVVGGRRSAWRVISSIEQKTDTSDKKLQLIKDYREKVESELRSICTTVLELLDKYLIANATNPESKVFYLKMKGDYFRYLAEVACGDDRKQTIDNSQGAYQEAFDISKKEMQPTHPIRLGLALNFSVFYYEILNNPELACTLAKTAFDEAIAELDTLNEDSYKDSTLIMQLLRDNLTLWTSDSAGEECDAAEGAEN
B2: HA-tagged UL97, wild type, full length (pCGN-HA-UL97) [human cytomegalovirus (HCMV)] / Flag-tagged 14-3-3 β [human] (parent complex)
chain 1: B1 chain 1
chain 2: MTMDKSELVQKAKLAEQAERYDDMAAAMKAVTEQGHELSNEERNLLSVAYKNVVGARRSSWRVISSIEQKTERNEKKQQMGKEYREKIEAELQDICNDVLELLDKYLIPNATQPESKVFYLKMKGDYFRYLSEVASGDNKQTTVSNSQQAYQEAFEISKKEMQPTHPIRLGLALNFSVFYYEILNSPEKACSLAKTAFDEAIAELDTLNEESYKDSTLIMQLLRDNLTLWTSENQGDEGDAGEGEN
B3: HA-tagged UL97, wild type, full length (pCGN-HA-UL97) [human cytomegalovirus (HCMV)] / Flag-tagged 14-3-3 η [human] (parent complex)
chain 1: B1 chain 1
chain 2: MGDREQLLQRARLAEQAERYDDMASAMKAVTELNEPLSNEDRNLLSVAYKNVVGARRSSWRVISSIEQKTMADGNEKKLEKVKAYREKIEKELETVCNDVLSLLDKFLIKNCNDFQYESKVFYLKMKGDYYRYLAEVASGEKKNSVVEASEAAYKEAFEISKEQMQPTHPIRLGLALNFSVFYYEIQNAPEQACLLAKQAFDDAIAELDTLNEDSYKDSTLIMQLLRDNLTLWTSDQQDEEAGEGN
B4: HA-tagged UL97, wild type, full length (pCGN-HA-UL97) [human cytomegalovirus (HCMV)] / Flag-tagged 14-3-3 γ [human] (parent complex)
chain 1: B1 chain 1
chain 2: MVDREQLVQKARLAEQAERYDDMAAAMKNVTELNEPLSNEERNLLSVAYKNVVGARRSSWRVISSIEQKTSADGNEKKIEMVRAYREKIEKELEAVCQDVLSLLDNYLIKNCSETQYESKVFYLKMKGDYYRYLAEVATGEKRATVVESSEKAYSEAHEISKEHMQPTHPIRLGLALNYSVFYYEIQNAPEQACHLAKTAFDDAIAELDTLNEDSYKDSTLIMQLLRDNLTLWTSDQQDDDGGEGNN
B5: HA-tagged UL97, wild type, full length (pCGN-HA-UL97) [human cytomegalovirus (HCMV)] / Flag-tagged 14-3-3 ε [human] (parent complex)
chain 1: B1 chain 1
chain 2: MDDREDLVYQAKLAEQAERYDEMVESMKKVAGMDVELTVEERNLLSVAYKNVIGARRASWRIISSIEQKEENKGGEDKLKMIREYRQMVETELKLICCDILDVLDKHLIPAANTGESKVFYYKMKGDYHRYLAEFATGNDRKEAAENSLVAYKAASDIAMTELPPTHPIRLGLALNFSVFYYEILNSPDRACRLAKAAFDDAIAELDTLSEESYKDSTLIMQLLRDNLTLWTSDMQGDGEEQNKEALQDVEDENQ

Variants of: B1
Assay: co-immunoprecipitation (IP anti-HA, Western blot quantification); U-2 OS cells; WT UL97 0.6 μg, mutant 1.2 μg expression vector; 1 μg Flag-14-3-3 plasmid; read off a plot

Variant	ratio to parent
chain 1 S13A	~0.05
chain 1 K355Q	~0.2

Variants of: B2
Assay: as above

Variant	ratio to parent
chain 1 S13A	~0.14
chain 1 K355Q	~0.45

Variants of: B3
Assay: as above

Variant	ratio to parent
chain 1 K355Q	~0.32
chain 1 S13A	~0.17

Variants of: B4
Assay: as above

Variant	ratio to parent
chain 1 S13A	~0.07
chain 1 K355Q	~0.62

Variants of: B5
Assay: as above

Variant	ratio to parent
chain 1 S13A	~0.06
chain 1 K355Q	~0.42
